Test results as given in the supplement of paper PMC9732359.
± gives the uncertainty stated by the source.

Test: protein stability index of a GFP-peptide fusion (yeast GPS) (PSI 1-4); higher = more stable; sorted into four equal gates, so the index is relative within each strain
How it was run: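 The protein stability index of a peptide was calculated by multiplying its read frequency in each gate by that gate's number and adding the products. The peptides were tiled 17-residue stretches of yeast proteins, fused downstream of GFP on a Cherry-expressing plasmid and carried in yeast as a pooled library. Mid-log cultures in leucine-free medium were sorted into four equal gates by GFP/Cherry ratio, and each gate's plasmids were PCR-amplified and Illumina-sequenced.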

Sequence	protein stability index (doa10∆)	protein stability index (pdr5∆)	protein stability index (san1∆)	protein stability index (ubr1∆)
SRSTDNFHNSKKRMNSN [RRI1]	2.11 ± 0.06	2.4 ± 0.081	2.26 ± 0.1	2.61 ± 0.081
CVVLGCERRSTLKLQDT [PRE6]	1.78 ± 0.074	1.66 ± 0.073	1.91 ± 0.13	1.28 ± 0.062
DGSKMLKRADYTAVDTA [RPN14]	3.58 ± 0.12	3.32 ± 0.11	3.53 ± 0.036	3.26 ± 0.079
NANTVFAGSNNQPHQSQ [YOR098C/NUP1]	2.85 ± 0.1	3.15 ± 0.08	2.89 ± 0.06	3.07 ± 0.046
ADCQAELTKTKSSLYSA [YIL149C/MLP2]	2.6 ± 0.055	2.59 ± 0.055	2.46 ± 0.069	2.23 ± 0.045
DKYHPGYFGKVGMRYFH [RPL28]	3.23 ± 0.062	2.99 ± 0.072	2.99 ± 0.083	2.96 ± 0.044
NKHLTTLVEIFLERKCV [SSN3]	2.6 ± 0.17	2.73 ± 0.2		3.2 ± 0.17
GNKLVELMRIISRNGDT [SMC1]				3.28 ± 0.25
GNGLVDENKVEAFKSLY [YAR002W/NUP60]	3.35 ± 0.1	3.14 ± 0.12	3.53 ± 0.056	3.3 ± 0.053
KNGALVSNILSAFKFIH [YJL039C/NUP192]	1.71 ± 0.055	1.65 ± 0.046	1.51 ± 0.065	1.3 ± 0.036
CSHCGCVYVPNFNASLQ [SNM1]	3.36 ± 0.11	2.42 ± 0.11	3.13 ± 0.16	1.51 ± 0.1
TQLQICLDQMTEQFCAT [SRB7]	2.74 ± 0.063	2.88 ± 0.065	2.54 ± 0.08	2.52 ± 0.052
ELLEHIETIGHLITKEE [RPN5]	2.91 ± 0.076	3.03 ± 0.11	3.08 ± 0.068	3.12 ± 0.076
LKREERQGLIHQGSGGS [SMC3]		3.52 ± 0.1		
MTPVIEKIAAGYMQKPV [PRP28]	2.16 ± 0.11	1.93 ± 0.11	1.83 ± 0.14	2.68 ± 0.075
YLLENNQVGTDELILPL [YDL116W/NUP84]	3.18 ± 0.081	3.06 ± 0.11	3.07 ± 0.069	2.89 ± 0.057
DENTSGKISKPRFLNKQ [PRP28]		3.4 ± 0.23		3.16 ± 0.15
VSALDKCIKYSEKLITK [ECM29]	3.18 ± 0.14	2.15 ± 0.1	1.94 ± 0.12	1.92 ± 0.093
ESHIDSRNNTLNVTPSK [SIR4]	2.77 ± 0.045	2.62 ± 0.038	2.75 ± 0.046	2.63 ± 0.033
AVPAATPANTNNSTSNA [SWI1]	2.52 ± 0.06	2.99 ± 0.053	2.65 ± 0.053	2.96 ± 0.04
SKHNERNKSAANNDINS [YDL088C/ASM4]		3.21 ± 0.12		2.85 ± 0.12
LYYDEDINVESLTQSVC [PUP2]	2.36 ± 0.061	2.25 ± 0.052	2.46 ± 0.064	2.21 ± 0.031
EARLRNLTYSSGLFVDV [RPB2]	2.34 ± 0.057	2.25 ± 0.047	1.46 ± 0.075	1.79 ± 0.028
LPDGKNGNLEEEFAYVD [MED6]	3.41 ± 0.066	3.44 ± 0.12	3.42 ± 0.052	3.32 ± 0.074
DEDWSVRIDKALELDDT [ECM29]	2.76 ± 0.18	3.38 ± 0.17		
VKKPQKSKTSTGKERSK [SNM1]	3.15 ± 0.07	3.39 ± 0.085	3.549 ± 0.035	3.35 ± 0.062
SNTTTQIQFTPLIKKIK [SMC3]	2.2 ± 0.088	2.46 ± 0.045	2.71 ± 0.095	2.37 ± 0.07

Sequence	protein stability index (doa10∆)	protein stability index (pdr5∆)	protein stability index (san1∆)	protein stability index (ubr1∆)
RRKKILNEIELDNLKLK [GRR1]	3.04 ± 0.11	3.04 ± 0.086	2.76 ± 0.093	2.87 ± 0.068
LRADKLYEKLKQEIMMS [ISW2]	1.63 ± 0.14	1.38 ± 0.18	1.78 ± 0.25	1.41 ± 0.15
LSFTPTTVIGIRGSDQA [RPN2]	1.65 ± 0.089	1.61 ± 0.073	1.78 ± 0.15	1.59 ± 0.062
IIDEIKCIPKKGTVFQF [POP4]	1.6 ± 0.13	1.56 ± 0.074	1.86 ± 0.28	1.3 ± 0.048
LDSGDDQPQSSEAKRTK [BRR2]	3.31 ± 0.057	3.26 ± 0.057	3.25 ± 0.048	3.25 ± 0.043
DNSFNELTDNMSDFVPI [MCD1]	2.95 ± 0.082	3 ± 0.089	2.92 ± 0.052	3.23 ± 0.064
VTLKGAKALESLASCLR [POP1]	3.12 ± 0.073	2.94 ± 0.069	2.54 ± 0.078	2.74 ± 0.07
RLIDLSGCENITDKTIE [GRR1]	3.05 ± 0.068	3.21 ± 0.093	2.85 ± 0.079	2.88 ± 0.093
RSDREYPLLIRMSYGSH [SRP14]	2.51 ± 0.077	2.3 ± 0.077	1.92 ± 0.077	2.23 ± 0.061
RRQAVDVSPLRRVNQAI [RPS5]	2.63 ± 0.083	2.62 ± 0.094	2.69 ± 0.078	2.75 ± 0.083
PHNSKSLGFLQQSNKLH [RPN3]	3.11 ± 0.059	3.07 ± 0.072	3.1 ± 0.053	3.26 ± 0.055
RSMSGQPPTNVQPTIGQ [SNF5]	2.74 ± 0.065	2.97 ± 0.071	3.01 ± 0.074	3.15 ± 0.036
QGVTCLHLAVGKKWFEV [NAS6]	2.76 ± 0.23			3.14 ± 0.14
GFEQVKIALGSPIVNVL [RRI2]	1.56 ± 0.15	2.78 ± 0.2	1.48 ± 0.25	2.52 ± 0.12
SRGFEVMYNGHTGKKLM [RPB2]	1.97 ± 0.12	3.33 ± 0.25	2.71 ± 0.13	
RRNLRYGDRMKLAKNLQ [RPO31]	3.15 ± 0.091	3.38 ± 0.073	3.48 ± 0.079	3.44 ± 0.067
EKSRISERDSKDRYING [YMR129W/POM152]	3.01 ± 0.09	3.08 ± 0.062	3.04 ± 0.066	2.54 ± 0.05
ERLMTWKFKSLIEILRL [RRI2]	2.11 ± 0.054	2.01 ± 0.044	1.68 ± 0.088	2.31 ± 0.032
IKTRDACPLDNQPWQLA [HRT1]	3.02 ± 0.085	2.66 ± 0.063	2.27 ± 0.073	3.12 ± 0.049
MDTSDDAFVATAFATEF [DLS1]	2.82 ± 0.07	3.08 ± 0.09	2.75 ± 0.081	2.8 ± 0.044
PDSNHLSSETGIKLALD [SRB4]	3.3 ± 0.087	3.35 ± 0.073	3.33 ± 0.058	3.37 ± 0.066
ALQKGLKDLMDLCDVVE [RPC19]	3.44 ± 0.24	2.84 ± 0.28	2.92 ± 0.13	3.02 ± 0.14
IAAKTHILRISFLDRKR [SIN4]	2.53 ± 0.1	2.65 ± 0.09	1.84 ± 0.073	2.42 ± 0.049
LESYLIVHHPYQSLKQI [SSN8]	2.33 ± 0.052	2.46 ± 0.059	2.29 ± 0.053	2.38 ± 0.044
YGYFSVGKRVPIVEDRR [SIR4]	3.12 ± 0.12	2.28 ± 0.1	2.16 ± 0.13	2.75 ± 0.26
ENTVGLISGAGANPRVL [RPN10]	1.72 ± 0.052	1.46 ± 0.057	1.86 ± 0.085	1.4 ± 0.044
